Read-outs that look alike come from different tables or passages of the source.

On to amyloid precursor protein (APP): K587R, for which the other result (SUMOylation at K587) is on record as “increases”.
“amyloid precursor protein (APP): K587R/K595R”: the other entry is “increases” (SUMOylation at K587) and “increases” (SUMOylation at K595).
Take amyloid precursor protein (APP): K595R: the other entry (SUMOylation at K595) is on record as “increases”.
